Numbering of substitutions follows the chain as printed.
Columns and labels:
[1] = biological target: T1, human LILRB1 on CHOK1 cells (human, UniProt Q8NHL6 24-650); experiment: cell-based RBA (FACS): blocking of HLA-G binding to CHOK1-hLILRB1 cells
T1 construct: whole, on cells; also called CHOK1-hLILRB1; CHOK1-LILRB1

[2] = biological target: T2, human LILRB2 on CHOK1 cells (human, UniProt Q8N423 22-597); experiment: FACS binding, CHOK1-hLILRB2 cells
T2 construct: whole, on cells; also called CHOK1-hLILRB2; CHOK1-LILRB2
T2 sequence (Q8N423 22-597): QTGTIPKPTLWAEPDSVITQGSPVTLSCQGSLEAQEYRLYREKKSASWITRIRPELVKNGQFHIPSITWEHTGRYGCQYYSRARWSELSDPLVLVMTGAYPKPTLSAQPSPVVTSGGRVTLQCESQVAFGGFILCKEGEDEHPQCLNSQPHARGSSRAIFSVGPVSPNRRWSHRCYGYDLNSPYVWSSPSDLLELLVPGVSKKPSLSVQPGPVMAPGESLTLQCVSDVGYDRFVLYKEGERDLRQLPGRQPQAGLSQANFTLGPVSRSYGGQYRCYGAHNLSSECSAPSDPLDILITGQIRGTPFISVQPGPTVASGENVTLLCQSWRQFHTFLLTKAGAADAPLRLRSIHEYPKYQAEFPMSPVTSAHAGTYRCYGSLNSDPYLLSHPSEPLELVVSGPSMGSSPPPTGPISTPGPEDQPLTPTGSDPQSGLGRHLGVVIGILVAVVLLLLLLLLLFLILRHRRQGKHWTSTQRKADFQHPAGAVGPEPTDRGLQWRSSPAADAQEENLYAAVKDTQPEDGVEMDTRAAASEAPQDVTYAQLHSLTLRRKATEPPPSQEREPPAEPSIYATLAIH

[3] = biological target: T1, human LILRB1 on CHOK1 cells; experiment: FACS binding, CHOK1-hLILRB1 cells
human LILRB1 = biological target: T3, human LILRB1 (human, UniProt Q8NHL6 24-458, limits assumed); experiment: Octet off-rate ranking;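 further: antibody dissociation rate constants against cynomolgus LILRB2 plus human LILRB1, LILRB2, LILRA1 and LILRA2, measured on an Octet instrument to rank binding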
T3 construct: also called hLILRB1
T3 sequence (Q8NHL6 24-458 limits assumed): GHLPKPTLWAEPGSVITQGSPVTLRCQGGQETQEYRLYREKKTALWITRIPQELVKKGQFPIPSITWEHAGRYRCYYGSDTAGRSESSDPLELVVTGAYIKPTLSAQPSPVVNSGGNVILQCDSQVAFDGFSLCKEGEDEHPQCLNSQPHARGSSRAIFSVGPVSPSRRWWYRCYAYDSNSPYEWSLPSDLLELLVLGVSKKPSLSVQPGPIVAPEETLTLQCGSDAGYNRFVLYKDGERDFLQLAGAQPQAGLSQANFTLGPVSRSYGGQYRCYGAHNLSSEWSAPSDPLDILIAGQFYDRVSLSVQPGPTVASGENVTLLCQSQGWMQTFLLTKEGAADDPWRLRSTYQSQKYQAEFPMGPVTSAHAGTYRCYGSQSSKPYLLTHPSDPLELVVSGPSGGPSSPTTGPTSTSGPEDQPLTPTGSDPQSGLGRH
Description: Binding affinity of anti-LILRB1 and anti-LILRB2 antibodies against human LILRB1, LILRB2, LILRA1, LILRA2 and cynomolgus LILRB2 was ranked by measuring dissociation rate constant (Kdis) using the Octet system.

T1 sequence (Q8NHL6 24-650): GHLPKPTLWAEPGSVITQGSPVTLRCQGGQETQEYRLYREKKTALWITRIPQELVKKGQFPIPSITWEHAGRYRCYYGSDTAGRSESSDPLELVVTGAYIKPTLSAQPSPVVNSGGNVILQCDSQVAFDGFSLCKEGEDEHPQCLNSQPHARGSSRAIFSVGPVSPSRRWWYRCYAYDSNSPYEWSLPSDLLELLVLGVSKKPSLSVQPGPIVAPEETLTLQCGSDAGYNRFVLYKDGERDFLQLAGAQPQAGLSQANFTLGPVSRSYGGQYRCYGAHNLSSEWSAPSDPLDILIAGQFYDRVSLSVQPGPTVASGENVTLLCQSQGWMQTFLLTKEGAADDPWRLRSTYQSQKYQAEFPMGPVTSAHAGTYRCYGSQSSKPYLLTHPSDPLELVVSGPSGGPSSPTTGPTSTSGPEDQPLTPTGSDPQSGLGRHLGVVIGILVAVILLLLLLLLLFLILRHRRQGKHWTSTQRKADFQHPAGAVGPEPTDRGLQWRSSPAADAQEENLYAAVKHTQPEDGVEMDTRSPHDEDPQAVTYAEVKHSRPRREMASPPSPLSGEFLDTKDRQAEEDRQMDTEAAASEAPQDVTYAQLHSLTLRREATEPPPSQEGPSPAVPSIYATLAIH

B1: LK-RB1-47 (antibody, human IgG4 S228P, kappa, V domains shown)
VH: QIQLVQSGPELKKPGETVKISCKASGYTFTTYGMSWVKQAPGKGLKWMGWINTYSGVPTYTDDFKGRFAFSVETSASTAYLQINNLKNEDTATYFCARRERDFYGNIFFPYWGQGSLVTVSA
VL: DIQMTQTTSSLSASLGDRVTISCRASQDISNYLNWYQQKPDGTVKLLIYYTSRIHSGVPSRFSGSGSGTDFSLTISNLDQEDIATYFCQQGHTLPWTFGGGTKVEIKR
[1]
  EC50: 1.59 nM
  Top Inhibition (%): 99%
[2]
  binding result: no binding
[3]
  EC50: 1.13 nM

B2: LK-RB1-22 (antibody, human IgG4 S228P, kappa, V domains shown)
VH: QVQLKESGPGLVAPSQSLSITCTVSGFSLTSYGVSWVRQPPGKGLEWLGIIWGDGNTNYHSALTSRLSISKDNSKSQVFLKLNSLRTDDTATYYCAKPHWDHYSMDYWGQGTSVTVSS
VL: B1 VL with Y32F, I54L, V58A, F71Y, H92N, W96L, G100A, V104L, I106L
Human LILRB1
  koff: 0.000416 s⁻¹

B3: LK-RB1-17 (antibody, human IgG4 S228P, kappa, V domains shown)
VH: QVQLQQPGAELVKPGASVKLSCEASGYTFTNYWIHWVKQRPGRGLEWIGRIAPNSGGTKYNEKFKTRATLTVDKASTTAYMQLSSLTSEDSAVYYCARLDGSPYYFDYWGQGTTLTVSS
VL: DIVMTQSQKFMSTSIGDRVSVTCKASQNVDTNVAWYQQKPGQSPKALIYSASYRYSGIPDRFTGSGSGTDFTLTISNVQSEDLAEYFCQQYNSYPYTFGGGTKLEIKR
Human LILRB1
  koff: 0.000312 s⁻¹

B4: LK-RB1-3 (antibody, human IgG4 S228P, kappa, V domains shown)
VH: QVQLQQPGAELVKPGTSVNLSCKASGYTFTSYWIHWVKQRPGRGLEWIGRINPYSSGTRYNEKFKNKATLTVDKPSSTAYMQLTSLTSEDSAVYYCARFDGAPDYFDFWGQGTTLTVSS
VL: DIVMTQSQKFMPTSVGDRVNVTCKASQNVGINVAWYQQKLGQSPKALIYSASYRYSGVPDRFTGSGSGTDFTLTINSVQSEDLADYFCQQYNNYPFTFGSGTKLEIKR
Human LILRB1
  koff: 5.24e-05 s⁻¹

B5: LK-RB1-20 (antibody, human IgG4 S228P, kappa)
heavy: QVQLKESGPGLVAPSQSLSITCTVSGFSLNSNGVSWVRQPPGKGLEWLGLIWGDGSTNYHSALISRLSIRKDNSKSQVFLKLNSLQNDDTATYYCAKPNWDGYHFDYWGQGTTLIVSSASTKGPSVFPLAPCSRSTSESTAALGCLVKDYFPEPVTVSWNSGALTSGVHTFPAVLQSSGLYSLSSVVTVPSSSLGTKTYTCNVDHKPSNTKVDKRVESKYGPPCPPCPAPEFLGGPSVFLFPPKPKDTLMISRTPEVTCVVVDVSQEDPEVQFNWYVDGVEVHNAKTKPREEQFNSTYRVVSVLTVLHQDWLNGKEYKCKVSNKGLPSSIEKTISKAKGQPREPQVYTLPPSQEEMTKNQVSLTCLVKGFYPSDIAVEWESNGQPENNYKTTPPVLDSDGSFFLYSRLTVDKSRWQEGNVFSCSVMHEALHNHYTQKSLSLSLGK
light: DIQMNQSPSSLSASLGDTITITCHASQNIDFWLSWYQQKPGNIPKLLIYKASNLHTGVPSRFSGSGSGTGFTLTISSLQPEDIATYYCQQGQSYPLTFGAGTKLELKRTVAAPSVFIFPPSDEQLKSGTASVVCLLNNFYPREAKVQWKVDNALQSGNSQESVTEQDSKDSTYSLSSTLTLSKADYEKHKVYACEVTHQGLSSPVTKSFNRGEC
Human LILRB1
  koff: 0.000141 s⁻¹

B6: LK-RB1-18 (antibody, human IgG4 S228P, kappa, V domains shown)
VH: B2 VH with S31N, Y32S, S35T, V37I, I50V, N56S, T64I, R86Q, H102Y, S104N
VL: DIQMTQTPSSLSASLGDRVTISCRASQDISNYLNWYQQKPDGTVKLLIYFTSRLHSGVPSRFSGSGSGTDYSLTISNLEQEDFATYFCQQGITLPLTFGAGTKLELKR
Human LILRB1
  koff: 8.15e-05 s⁻¹

B7: LK-RB1-19 (antibody, human IgG4 S228P, kappa, V domains shown)
VH: B2 VH with S17N, N58D, T64I, S70R, R86K, T87S, D101E, H102Y, S104T
VL: B6 VL with P8T, Y32F, F50S, S76A, F83V, I92N
Human LILRB1
  koff: 4.78e-05 s⁻¹

B8: LK-RB1-8 (antibody, human IgG4 S228P, kappa, V domains shown)
VH: QVQLQQSGAELVRPGTSVKVSCKASGYAFSNYLIEWVKQRPGQGLEWIGVINPGSDGSTYNEKFKGKATLTADKSSNTAYMQLSSLTSEDSAVYFCARGDYGRSYGMDYWGQGTSVTVSS
VL: DIVMTQSQKFMSTTVGDRVSITCKASQNVGTAVVWYQQKPGQSPKLLIYSASNRYTGVPDRFTGSGSGTDFTLTISNMQSEDLADYFCQQYSSYMYTFGGGTKLEIKR
Human LILRB1
  koff: 0.000218 s⁻¹

B9: LK-RB1-4 (antibody, human IgG4 S228P, kappa, V domains shown)
VH: QVQLQQPGAELVKPGASVKLPCKTSGYTFTSYWMHWVKQRPGRGLEWIGRIDPHYSGTKYNEKFKNKATMTVDTPSSTAYMQLSSLTSEDSAVYYCARFDGDPYYFDYWGPGTTLTVSS
VL: DIVMTQSQKFMSTSVGDRVSVTCKASQNVGTNVAWYKQKAGQSPKAVIYSASYRYSGVPDRFTGSGSGTDFTLSISNVQSEDLAEYFCQQYNNNPFTFGSGTKLEIKR
Human LILRB1
  koff: 2.79e-05 s⁻¹

B10: LK-RB1-55 (antibody, human IgG4 S228P, kappa, V domains shown)
VH: EVKLVESGGGLVQPGGSLKLSCAASGFTFSDYYMYWVRQTPEKRLEWVAYISNGGDITFYPDTVKGRFTISRDNARSTLYLQMSRLKSEDTAIYYCASATTEVGAMDHWGQGTSVTVSS
VL: DIVMTQSQKFMSTTVGDRVSITCKASQNVGTAVAWYQQKPGKSPKLLIYAASNRYTGVPDRFTGSGSGTDFTLTISNMQSEDLADYFCQQYSSYRTFGGGTNLEIKR
[1]
  EC50: 1.26 nM
  Top Inhibition (%): 92.6%
[2]
  binding result: no binding
[3]
  EC50: 1.68 nM

B11: LK-RB1-48 (antibody, human IgG4 S228P, kappa, V domains shown)
VH: B10 VH with D56G, T58S, R76K, S77N, T101K, H108Y
VL: B10 VL with M11L, K42Q, L46I, A50S, N102K
[1]
  EC50: 1 nM
  Top Inhibition (%): 86.7%
[2]
  binding result: no binding
[3]
  EC50: 1.06 nM

B12: LK-RB1-52 (antibody, human IgG4 S228P, kappa, V domains shown)
VH: B10 VH with T28I, F59Y, N74I, S77N, Y80F, S84G, I93M
VL: B10 VL with K42Q, S92R
[1]
  EC50: 2.25 nM
  Top Inhibition (%): 89.7%
[2]
  binding result: no binding
[3]
  EC50: 1.8 nM

B13: LK-RB1-57 (antibody, human IgG4 S228P, kappa, V domains shown)
VH: B10 VH with M83T
VL: B10 VL with M78V, N102S
[1]
  EC50: 1.67 nM
  Top Inhibition (%): 90%
[2]
  binding result: no binding
[3]
  EC50: 1.78 nM

B14: LK-RB1-2 (antibody, human IgG4 S228P, kappa, V domains shown)
VH: QIQLVQSGPELKKPGETVKISCKASGYTFTTYGVSWVKQAPGKGLKWMGWINTYSGVSTYSDDFKGRFAFSLETSASTAYLQIINLKNEDAATYFCSRRRRTYDGYLSFDYWGQGTTLTVSS
VL: DIQMTQSPGSLSASVGETVTITCGASENIYGALNWFQRKPGKSPQLLIYGATNLADGMSSRFSGSGSGRQYSLQISSLRPDDVATYYCQNVLTTPWTFGGGTKVEIKR
Human LILRB1
  koff: 0.000118 s⁻¹

B15: LK-RB1-23 (antibody, human IgG4 S228P, kappa, V domains shown)
VH: QVQLQQTGAELVRPGSSVKLSCKASGYTFTNYWMDWVKQRPGQGLEWIGNIHPFGNETHYNQKFKDKATLTVDKSSSTAYMQLSSLTSEDSAVYYCARGLLLYFDVWGTGTTVTVSS
VL: DIQMTQSPASQSVSVGETVTITCRASENIYSNLAWYQQKQGKSPQLLVYGATNLADGVSLRFSGSGSGTQYSLKINSLQSEDFGSYYCQHFWGIPWTFGGGTKLEIKR
Human LILRB1
  koff: 0.000477 s⁻¹

B16: LK-RB1-21 (antibody, human IgG4 S228P, kappa, V domains shown)
VH: QVQLQQPGAELVKPGASVKMSCKASGYIFTDYWTTWVKQRPGQGLEWIGDIYPVSGSTNYNEKFKNKATLTVDTSSSTAYMQLSSLTSEDSAVYYCARALGRRYYFDYWGQGTTLTVSS
VL: DIVMTQSHKFMSTSIGDRVSITCKASQDVSTAVAWCQQKPGQSPKSLIYSASYRYTGIPDRFTGSGSGTDFTFTISSVQAEDLAVYYCQQHYTNPVTFGTGTKLELKR
Human LILRB1
  koff: 4.02e-05 s⁻¹

B17: LK-RB1-49 (antibody, human IgG4 S228P, kappa, V domains shown)
VH: QIQLVQSGPELKKPGETVKISCKASGYTFTTYGMSWVKQAPGKGLKWMGWINTYSGVPTYADDFKGRFAFSLETSGSTAYLQISNLKNEDTATYFCSRLFRSWDSYAMDYWGQGTSVTVSS
VL: DIVMTQSQKFMSATVGDRVSITCKASQNVGTAVAWYQQKPGQSPKLLIYSPSNRYTGVPDRFTGSGSGTHFTLTINNMQSEDLADYFCQQYSTYPLTFGAGTKLELNR
[1]
  EC50: 2.32 nM
  Top Inhibition (%): 91.4%
[2]
  binding result: no binding
[3]
  EC50: 2.05 nM

B18: LK-RB1-14 (antibody, human IgG4 S228P, kappa, V domains shown)
VH: QVTLKESGPGILKPSQTLSLTCSFSGFSLSTSGMGVGWIRQPSGKGLEWLAHIWWDDDKYYNPSLKSQLTISKDTSRNQVFLKITSVDTADTATYYCARTELGRGDSWGQGTSVTVSS
VL: DILLTQSPAILSVSPGERVSFSCRASQSIGTSIHWYQQRTNGSPRLLIKYASESISGIPSRFSGSGSGTDFTLSINSVESEDIADYYCQQSYSWPYTFGGGTKLEIKR
Human LILRB1
  koff: 0.00131 s⁻¹

B19: LK-RB1-15 (antibody, human IgG4 S228P, kappa, V domains shown)
VH: B18 VH with L12V, T31I, M34T, V36I, L69V, R77T, N78K, K83N, A98T, S107F
VL: B18 VL with E17D, S32N, Q38R, A51G, S67T, S74T
Human LILRB1
  koff: 0.000103 s⁻¹

B20: LK-RB1-53 (antibody, human IgG4 S228P, kappa)
heavy: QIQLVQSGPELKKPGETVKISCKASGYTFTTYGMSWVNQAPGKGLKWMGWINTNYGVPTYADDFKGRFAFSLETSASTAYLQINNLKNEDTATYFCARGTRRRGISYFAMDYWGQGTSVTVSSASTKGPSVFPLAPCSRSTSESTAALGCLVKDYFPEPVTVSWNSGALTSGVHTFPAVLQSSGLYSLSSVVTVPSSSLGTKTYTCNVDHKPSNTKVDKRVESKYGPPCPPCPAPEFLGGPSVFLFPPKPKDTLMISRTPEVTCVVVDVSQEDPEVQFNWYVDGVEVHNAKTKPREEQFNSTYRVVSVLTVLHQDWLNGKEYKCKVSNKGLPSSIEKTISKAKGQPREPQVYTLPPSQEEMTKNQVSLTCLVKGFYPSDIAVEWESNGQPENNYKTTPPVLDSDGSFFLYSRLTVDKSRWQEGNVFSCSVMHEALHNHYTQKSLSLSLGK
light: DIVMTQSQKFMSTTVGDRVSITCKASQNVGTAVAWYQQKPGQSPKLLIYSASNRYTGVPDRFTGSDSGTDFTLTINNIQSEDLADYFCQQYSSYPLTFATGTKLELKRTVAAPSVFIFPPSDEQLKSGTASVVCLLNNFYPREAKVQWKVDNALQSGNSQESVTEQDSKDSTYSLSSTLTLSKADYEKHKVYACEVTHQGLSSPVTKSFNRGEC
[1]
  EC50: 2.01 nM
  Top Inhibition (%): 75.7%
[2]
  binding result: no binding
[3]
  EC50: 0.71 nM

B21: LK-RB1-6 (antibody, human IgG4 S228P, kappa, V domains shown)
VH: QIQLVQSGPELKKPGETVKISCKASGYTFTTYGMSWVKQAPGKDLKWMGWINTFSGVPACADDFQGRFDFSAEPSDSTAHLQINNLKNEDTATYFCARRSYYGSRGWYFDVWGTGTTVTVSS
VL: DIVMTQSHKFMSTSVGDRVSITCTASEDVNTAVAWYQQKPGQSPKLLIYWASTRHTGVPDRFTGSGSGTDYTLTISSVQTEDLALYYCQQHYNTPYTFGGGTKLEIKR
Human LILRB1
  koff: 0.00059 s⁻¹

B22: LK-RB1-7 (antibody, human IgG4 S228P, kappa, V domains shown)
VH: B21 VH
VL: DVQMIQSPSSLSASLGDIVTMTCQASQDTTINLNWFQQKPGKVPKLLIYGASNLEDGVPSRFSGSSFGTDFTLTISSLEDEDMATYFCLQHTYLPRTFGGGTKLEIRR
Human LILRB1
  koff: 0.00059 s⁻¹
